The values that follow come from paper PMC3138754, “α-SNAP Prevents Docking of the Acrosome during Sperm Exocytosis because It Sequesters Monomeric Syntaxin” (PLoS ONE, 2011).

For the experiment, the target named is T1, syntaxin1 (1–262), cytosolic domain (UniProt P32851 1-262).
T1 construct: syntaxin1 residues 1-262 (cytosolic domain); pET28a plasmid from D. Fasshauer; rat syntaxin 1A is surmised from the source of the plasmid; also called syntaxin 1–262; cytosolic domain of syntaxin1; source: E. coli BLR(DE3), pET28a plasmid, extracted in 6 M urea, purified on Ni-NTA with renaturing during the washing step
As to the kind of experiment: co-IP; 0.9 µM syntaxin 1-262 with 1, 2.5 or 5 µM α-SNAP wild type or M105I, NSF and ATP omitted; anti-syntaxin immunoprecipitation, anti-α/β-SNAP blot, densitometry normalised to syntaxin. The note with it: both partners purified.

T1 sequence (P32851 1-262): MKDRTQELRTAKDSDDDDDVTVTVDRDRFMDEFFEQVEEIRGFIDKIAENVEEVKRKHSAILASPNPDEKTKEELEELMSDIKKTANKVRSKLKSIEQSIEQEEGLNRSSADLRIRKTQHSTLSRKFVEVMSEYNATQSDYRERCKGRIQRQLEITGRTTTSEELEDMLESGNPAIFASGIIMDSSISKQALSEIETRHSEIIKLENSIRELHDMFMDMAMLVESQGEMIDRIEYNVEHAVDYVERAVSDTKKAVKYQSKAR

B1: α-SNAP-M105I (natural protein, UniProt P81125 1-295, looked up)
chain: MDNSGKEAEAMALLAEAERKVKNSQSFFSGLFGGSSKIEEACEIYARAANMFKMAKNWSAAGSAFCQAAHVHLQLQSKHDAATCFVDAGNAFKKADPQEAINCLIRAIEIYTDMGRFTIAAKHHISIAEIYETELVDIEKAIAHYEQSADYYKGEESNSSANKCLLKVAGYAAQLEQYQKAIDIYEQVGTNAMDSPLLKYSAKDYFFKAALCHFCIDMLNAKLAVQKYEELFPAFSDSRECKRIKKLLEAHEEQNVDSYTEAVKEYDSISRLDQWLTTMLLRIKKTIQGDEEDLR
notes: α-SNAP with the point mutation M105I that occurs in hyh mice; pET28 plasmid from P. Hanson; called one of the three full length proteins; also called M105I mutant; the mutant of the hyh mouse; source: E. coli BLR(DE3), pET28 plasmid, purified (Ni-NTA, native conditions)
As for B1, the “fold amount recovered with syntaxin against the wild type” value amounted to 2 fold.
